# In patent publication US20140322196A1:
# Tests used:
# [1] = biological target: Hemagglutinin (HA) of Avian 29/05/06 H5N1 (inactivated vaccine) (Influenza A virus Avian 29/05/06 H5N1); test: cell-based or functional assay
# [2] = biological target: Hemagglutinin (HA) of Influenza SW [change] 1089/09 swine pandemic H1N1 (inactivated subunits, vaccine) (Influenza A virus SW [change] swine pandemic H1N1); test: cell-based or functional assay
Substance,HI titre [1] [fM],HI titre [2] [fM]
Lactoferrin from bovine milk (bLf) (from UniProt P24627 20-708),2900,46.5
"… (SEQ ID NO: 1), bLf C-lobe peptide 418-429",18,5.8
"… (SEQ ID NO: 2), bLf C-lobe peptide 506-522",70,46
